Measured values published in US20170260257A1 (GREEN CROSS, published 2017).

Experiments:
[1] = biological target: HBsAg mutant of patient CH 32 (chronic hepatitis) (hepatitis B virus); assay: sandwich ELISA: plate coated with the antibody, patient blood, detection with sheep anti-HBsAg/peroxidase
[2] = biological target: HBsAg mutant of patient LC 98 (liver cirrhosis) (hepatitis B virus); assay: as above
[3] = biological target: T1, HBsAg mutant of patient CH 15 (chronic hepatitis) (hepatitis B virus); assay: as above
T1 construct: Positions count on the S (surface) protein

[4] = biological target: HBsAg mutant of patient LC 32 (liver cirrhosis) (hepatitis B virus); assay: as above
[5] = biological target: HBsAg mutant of patient CH 34 (chronic hepatitis) (hepatitis B virus); assay: as above
[6] = biological target: HBsAg mutant of patient LC 59 (liver cirrhosis) (hepatitis B virus); assay: as above
[7] = biological target: HBsAg mutant of patient CH 75 (chronic hepatitis) (hepatitis B virus); assay: as above
[8] = biological target: HBsAg mutant of patient CH 62 (chronic hepatitis) (hepatitis B virus); assay: as above
[9] = biological target: HBsAg mutant of patient CH 33 (chronic hepatitis) (hepatitis B virus); assay: as above
[10] = biological target: HBsAg mutant of patient LC 53 (liver cirrhosis) (hepatitis B virus); assay: as above
[11] = biological target: HBsAg mutant of patient HCC 11 (hepatocellular carcinoma) (hepatitis B virus); assay: as above
[12] = biological target: HBsAg mutant of patient HCC 22 (hepatocellular carcinoma) (hepatitis B virus); assay: as above
[13] = biological target: HBsAg mutant of patient HCC 1 (hepatocellular carcinoma) (hepatitis B virus); assay: as above
[14] = biological target: HBsAg mutant of patient HCC 94 (hepatocellular carcinoma) (hepatitis B virus); assay: as above
[15] = biological target: HBsAg of YMDD mutant virus, patient blood sample YMDD #14 (hepatitis B virus); assay: as above
[16] = biological target: HBsAg of YMDD mutant virus, patient blood sample YMDD #5 (hepatitis B virus); assay: as above
[17] = biological target: HBsAg of YMDD mutant virus, patient blood sample YMDD #9 (hepatitis B virus); assay: as above
[18] = biological target: HBsAg of YMDD mutant virus, patient blood sample YMDD #7 (hepatitis B virus); assay: as above
[19] = biological target: HBsAg of YMDD mutant virus, patient blood sample YMDD #11 (hepatitis B virus); assay: as above
[20] = biological target: HBsAg of YMDD mutant virus, patient blood sample YMDD #8 (hepatitis B virus); assay: as above
[21] = biological target: HBsAg of YMDD mutant virus, patient blood sample YMDD #13 (hepatitis B virus); assay: as above
[22] = biological target: HBsAg of YMDD mutant virus, patient blood sample YMDD #12 (hepatitis B virus); assay: as above
[23] = biological target: HBsAg of YMDD mutant virus, patient blood sample YMDD #1 (hepatitis B virus); assay: as above
[24] = biological target: HBsAg of YMDD mutant virus, patient blood sample YMDD #10 (hepatitis B virus); assay: as above
[25] = biological target: HBsAg of YMDD mutant virus, patient blood sample YMDD #4 (hepatitis B virus); assay: as above
[26] = biological target: HBsAg of YMDD mutant virus, patient blood sample YMDD #3 (hepatitis B virus); assay: as above
[27] = biological target: HBsAg of YMDD mutant virus, patient blood sample YMDD #6 (hepatitis B virus); assay: as above
[28] = biological target: T2, G145R HBsAg mutant of patient S** (HBV recurred after liver transplantation) (hepatitis B virus); assay: sandwich ELISA: plate coated with the antibody (immobilized antibody rHBIG), patient blood, detection with sheep anti-HBsAg/peroxidase
T2 construct: Position 145 of the HBV surface protein

[29] = biological target: G145R HBsAg mutant of patient B** (HBV recurred after liver transplantation) (hepatitis B virus); assay: as above
[30] = biological target: G145R HBsAg mutant of patient C** (HBV recurred after liver transplantation) (hepatitis B virus); assay: as above
[31] = biological target: G145R HBsAg mutant of patient W** (HBV recurred after liver transplantation) (hepatitis B virus); assay: as above
[32] = biological target: G145R HBsAg mutant of patient L** (HBV recurred after liver transplantation) (hepatitis B virus); assay: as above

B1: the antibody of the present invention comprising a heavy-chain variable region having amino acid sequence of SEQ ID NO: 2 and a light-chain variable region … (antibody, V domains shown)
VH: EVQLVESGGGLVKPGGSLRLSCSASGFSLTKYKMTWVRQAPGKGLEWVSSISSTSRDIDYADSVKGRFTISRDNAKNSLFLQMSSLRVDDTAVYYCTRDGWLWGWDVRSNYYYNALDVWGQGTTVTVSS
VL: DIVVTQSPSSLSASVGDRVTITCRASQGIYNSIAWYQQKPGKAPKLLLYSTSTLLSGVPSRFSGSGSGTDYTLTITNLQPEDFATYYCQQYFVTPETFGQGTKLEIKR
notes: Captured with goat anti-human IgG (Fc specific) agarose and compared with a human IgG1 isotype control, so a human IgG; also called rHBIG
B1 was tested, and the ELISA [1] was 2.95, the ELISA [2] was 3.55 and the ELISA [3] was 3.06. For the same binder, the ELISA [4] was 2.73, the ELISA [5] was 1.37 and the ELISA [6] was 3.63. For the same binder, the ELISA [7] was 2.93, the ELISA [8] was 3.08 and the ELISA [9] was 2.83. The ELISA [10] was 3.5, the ELISA [11] was 3.36 and the ELISA [12] was 3.52. For the same binder, the ELISA [13] was 3.61, the ELISA [14] was 3.56 and the A450 [15] was 0.815 A450. For the same binder, the A450 [16] was 0.356 A450, the A450 [17] was 0.834 A450 and the A450 [18] was 1.1 A450. It also gave an A450 [19] of 0.786 A450, an A450 [20] of 1.14 A450 and an A450 [21] of 1.07 A450. The A450 [22] was 0.876 A450, the A450 [23] was 1.16 A450 and the A450 [24] was 1.13 A450. The A450 [25] was 1.02 A450, the A450 [26] was 0.957 A450 and the A450 [27] was 1.04 A450. For the same binder, the “ELISA signal (name and unit not given)” value [28] was 2.53, the “ELISA signal (name and unit not given)” value [29] was 3.08 and the “ELISA signal (name and unit not given)” value [30] was 2.47. The “ELISA signal (name and unit not given)” value [31] was 2.66 and the “ELISA signal (name and unit not given)” value [32] was 2.72.
